Results taken from patent US20250313605A1.

Molecular target: human GIP receptor (human) (UniProt P48546)
Experiment: cell-based or functional assay

human GIP receptor (human), sequence (P48546 22-466): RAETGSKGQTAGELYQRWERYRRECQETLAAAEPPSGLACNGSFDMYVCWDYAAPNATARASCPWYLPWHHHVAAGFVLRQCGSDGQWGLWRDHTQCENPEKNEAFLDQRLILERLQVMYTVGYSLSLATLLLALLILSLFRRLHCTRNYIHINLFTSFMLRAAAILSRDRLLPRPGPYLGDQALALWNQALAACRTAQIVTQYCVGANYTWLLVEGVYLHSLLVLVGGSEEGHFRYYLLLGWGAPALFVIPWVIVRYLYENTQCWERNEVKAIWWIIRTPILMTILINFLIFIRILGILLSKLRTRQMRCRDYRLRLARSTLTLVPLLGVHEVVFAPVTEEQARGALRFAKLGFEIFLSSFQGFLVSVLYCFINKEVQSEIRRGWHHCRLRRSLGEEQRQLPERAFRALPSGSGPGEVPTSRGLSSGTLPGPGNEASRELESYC

cAMP EC50 (0.1% casein): 0.154 nM | cAMP EC50 (FBS and BSA present): 0.133 nM
Substance: human GIP (1-42)NH2 (from UniProt P09681 52-93) (ligand)
